B1: RRAPGKLT-Asp-LASY-Orn-WLFWTGIA-COOH (peptide)
peptide: RRAPGKLTDLASY[Orn]WLFWTGIA-OH
modifications: N-terminus assumed
SMILES: CC[C@H](C)[C@H](NC(=O)CNC(=O)[C@@H](NC(=O)[C@H](Cc1c[nH]c2ccccc12)NC(=O)[C@H](Cc1ccccc1)NC(=O)[C@H](CC(C)C)NC(=O)[C@H](Cc1c[nH]c2ccccc12)NC(=O)[C@H](CCCN)NC(=O)[C@H](Cc1ccc(O)cc1)NC(=O)[C@H](CO)NC(=O)[C@H](C)NC(=O)[C@H](CC(C)C)NC(=O)[C@H](CC(=O)O)NC(=O)[C@@H](NC(=O)[C@H](CC(C)C)NC(=O)[C@H](CCCCN)NC(=O)CNC(=O)[C@@H]1CCCN1C(=O)[C@H](C)NC(=O)[C@H](CCCNC(=N)N)NC(=O)[C@@H](N)CCCNC(=N)N)[C@@H](C)O)[C@@H](C)O)C(=O)N[C@@H](C)C(=O)O
B2: RRAPGKLT-Dab-LASY-Asp-WLFWTGIA-CONH2 (peptide)
peptide: RRAPGKLT[Dab]LASYDWLFWTGIA-NH2
modifications: N-terminus assumed
SMILES: CC[C@H](C)[C@H](NC(=O)CNC(=O)[C@@H](NC(=O)[C@H](Cc1c[nH]c2ccccc12)NC(=O)[C@H](Cc1ccccc1)NC(=O)[C@H](CC(C)C)NC(=O)[C@H](Cc1c[nH]c2ccccc12)NC(=O)[C@H](CC(=O)O)NC(=O)[C@H](Cc1ccc(O)cc1)NC(=O)[C@H](CO)NC(=O)[C@H](C)NC(=O)[C@H](CC(C)C)NC(=O)[C@H](CCN)NC(=O)[C@@H](NC(=O)[C@H](CC(C)C)NC(=O)[C@H](CCCCN)NC(=O)CNC(=O)[C@@H]1CCCN1C(=O)[C@H](C)NC(=O)[C@H](CCCNC(=N)N)NC(=O)[C@@H](N)CCCNC(=N)N)[C@@H](C)O)[C@@H](C)O)C(=O)N[C@@H](C)C(N)=O
B3: RRAPGKLT-Dap-LASY-Asp-WLFWTGIA-CONH2 (peptide)
peptide: RRAPGKLT[Dap]LASYDWLFWTGIA-NH2
modifications: N-terminus assumed
SMILES: CC[C@H](C)[C@H](NC(=O)CNC(=O)[C@@H](NC(=O)[C@H](Cc1c[nH]c2ccccc12)NC(=O)[C@H](Cc1ccccc1)NC(=O)[C@H](CC(C)C)NC(=O)[C@H](Cc1c[nH]c2ccccc12)NC(=O)[C@H](CC(=O)O)NC(=O)[C@H](Cc1ccc(O)cc1)NC(=O)[C@H](CO)NC(=O)[C@H](C)NC(=O)[C@H](CC(C)C)NC(=O)[C@H](CN)NC(=O)[C@@H](NC(=O)[C@H](CC(C)C)NC(=O)[C@H](CCCCN)NC(=O)CNC(=O)[C@@H]1CCCN1C(=O)[C@H](C)NC(=O)[C@H](CCCNC(=N)N)NC(=O)[C@@H](N)CCCNC(=N)N)[C@@H](C)O)[C@@H](C)O)C(=O)N[C@@H](C)C(N)=O
B4: RRAPGKLT-Asp-LASY-Dap-WLFWTGIA-CONH2 (peptide)
peptide: RRAPGKLTDLASY[Dap]WLFWTGIA-NH2
modifications: N-terminus assumed
SMILES: CC[C@H](C)[C@H](NC(=O)CNC(=O)[C@@H](NC(=O)[C@H](Cc1c[nH]c2ccccc12)NC(=O)[C@H](Cc1ccccc1)NC(=O)[C@H](CC(C)C)NC(=O)[C@H](Cc1c[nH]c2ccccc12)NC(=O)[C@H](CN)NC(=O)[C@H](Cc1ccc(O)cc1)NC(=O)[C@H](CO)NC(=O)[C@H](C)NC(=O)[C@H](CC(C)C)NC(=O)[C@H](CC(=O)O)NC(=O)[C@@H](NC(=O)[C@H](CC(C)C)NC(=O)[C@H](CCCCN)NC(=O)CNC(=O)[C@@H]1CCCN1C(=O)[C@H](C)NC(=O)[C@H](CCCNC(=N)N)NC(=O)[C@@H](N)CCCNC(=N)N)[C@@H](C)O)[C@@H](C)O)C(=O)N[C@@H](C)C(N)=O
B5: RRAPGKLT-Orn-LASY-Asp-WLFWTGIA-CONH2 (peptide)
peptide: RRAPGKLT[Orn]LASYDWLFWTGIA-NH2
modifications: N-terminus assumed
SMILES: CC[C@H](C)[C@H](NC(=O)CNC(=O)[C@@H](NC(=O)[C@H](Cc1c[nH]c2ccccc12)NC(=O)[C@H](Cc1ccccc1)NC(=O)[C@H](CC(C)C)NC(=O)[C@H](Cc1c[nH]c2ccccc12)NC(=O)[C@H](CC(=O)O)NC(=O)[C@H](Cc1ccc(O)cc1)NC(=O)[C@H](CO)NC(=O)[C@H](C)NC(=O)[C@H](CC(C)C)NC(=O)[C@H](CCCN)NC(=O)[C@@H](NC(=O)[C@H](CC(C)C)NC(=O)[C@H](CCCCN)NC(=O)CNC(=O)[C@@H]1CCCN1C(=O)[C@H](C)NC(=O)[C@H](CCCNC(=N)N)NC(=O)[C@@H](N)CCCNC(=N)N)[C@@H](C)O)[C@@H](C)O)C(=O)N[C@@H](C)C(N)=O
B6: RRAPGKLT-Dap-LASY-Asp-WLFWTGIA-COOH (peptide)
peptide: RRAPGKLT[Dap]LASYDWLFWTGIA-OH
modifications: N-terminus assumed
SMILES: CC[C@H](C)[C@H](NC(=O)CNC(=O)[C@@H](NC(=O)[C@H](Cc1c[nH]c2ccccc12)NC(=O)[C@H](Cc1ccccc1)NC(=O)[C@H](CC(C)C)NC(=O)[C@H](Cc1c[nH]c2ccccc12)NC(=O)[C@H](CC(=O)O)NC(=O)[C@H](Cc1ccc(O)cc1)NC(=O)[C@H](CO)NC(=O)[C@H](C)NC(=O)[C@H](CC(C)C)NC(=O)[C@H](CN)NC(=O)[C@@H](NC(=O)[C@H](CC(C)C)NC(=O)[C@H](CCCCN)NC(=O)CNC(=O)[C@@H]1CCCN1C(=O)[C@H](C)NC(=O)[C@H](CCCNC(=N)N)NC(=O)[C@@H](N)CCCNC(=N)N)[C@@H](C)O)[C@@H](C)O)C(=O)N[C@@H](C)C(=O)O
B7: RRAPGKLT-Asp-LASY-Orn-WLFWTGIA-CONH2 (peptide)
peptide: RRAPGKLTDLASY[Orn]WLFWTGIA-NH2
modifications: N-terminus assumed
SMILES: CC[C@H](C)[C@H](NC(=O)CNC(=O)[C@@H](NC(=O)[C@H](Cc1c[nH]c2ccccc12)NC(=O)[C@H](Cc1ccccc1)NC(=O)[C@H](CC(C)C)NC(=O)[C@H](Cc1c[nH]c2ccccc12)NC(=O)[C@H](CCCN)NC(=O)[C@H](Cc1ccc(O)cc1)NC(=O)[C@H](CO)NC(=O)[C@H](C)NC(=O)[C@H](CC(C)C)NC(=O)[C@H](CC(=O)O)NC(=O)[C@@H](NC(=O)[C@H](CC(C)C)NC(=O)[C@H](CCCCN)NC(=O)CNC(=O)[C@@H]1CCCN1C(=O)[C@H](C)NC(=O)[C@H](CCCNC(=N)N)NC(=O)[C@@H](N)CCCNC(=N)N)[C@@H](C)O)[C@@H](C)O)C(=O)N[C@@H](C)C(N)=O
B8: RRAPGKLT-Orn-LASY-Asp-WLFWTGIA-COOH (peptide)
peptide: RRAPGKLT[Orn]LASYDWLFWTGIA-OH
modifications: N-terminus assumed
SMILES: CC[C@H](C)[C@H](NC(=O)CNC(=O)[C@@H](NC(=O)[C@H](Cc1c[nH]c2ccccc12)NC(=O)[C@H](Cc1ccccc1)NC(=O)[C@H](CC(C)C)NC(=O)[C@H](Cc1c[nH]c2ccccc12)NC(=O)[C@H](CC(=O)O)NC(=O)[C@H](Cc1ccc(O)cc1)NC(=O)[C@H](CO)NC(=O)[C@H](C)NC(=O)[C@H](CC(C)C)NC(=O)[C@H](CCCN)NC(=O)[C@@H](NC(=O)[C@H](CC(C)C)NC(=O)[C@H](CCCCN)NC(=O)CNC(=O)[C@@H]1CCCN1C(=O)[C@H](C)NC(=O)[C@H](CCCNC(=N)N)NC(=O)[C@@H](N)CCCNC(=N)N)[C@@H](C)O)[C@@H](C)O)C(=O)N[C@@H](C)C(=O)O
B9: RRAPGKLT-Asp-LASY-Dap-WLFWTGIA-COOH (peptide)
peptide: RRAPGKLTDLASY[Dap]WLFWTGIA-OH
modifications: N-terminus assumed
SMILES: CC[C@H](C)[C@H](NC(=O)CNC(=O)[C@@H](NC(=O)[C@H](Cc1c[nH]c2ccccc12)NC(=O)[C@H](Cc1ccccc1)NC(=O)[C@H](CC(C)C)NC(=O)[C@H](Cc1c[nH]c2ccccc12)NC(=O)[C@H](CN)NC(=O)[C@H](Cc1ccc(O)cc1)NC(=O)[C@H](CO)NC(=O)[C@H](C)NC(=O)[C@H](CC(C)C)NC(=O)[C@H](CC(=O)O)NC(=O)[C@@H](NC(=O)[C@H](CC(C)C)NC(=O)[C@H](CCCCN)NC(=O)CNC(=O)[C@@H]1CCCN1C(=O)[C@H](C)NC(=O)[C@H](CCCNC(=N)N)NC(=O)[C@@H](N)CCCNC(=N)N)[C@@H](C)O)[C@@H](C)O)C(=O)N[C@@H](C)C(=O)O
B10: RRAPGKLT-Asp-LASY-Dab-WLFWTGIA-COOH (peptide)
peptide: RRAPGKLTDLASY[Dab]WLFWTGIA-OH
modifications: N-terminus assumed
SMILES: CC[C@H](C)[C@H](NC(=O)CNC(=O)[C@@H](NC(=O)[C@H](Cc1c[nH]c2ccccc12)NC(=O)[C@H](Cc1ccccc1)NC(=O)[C@H](CC(C)C)NC(=O)[C@H](Cc1c[nH]c2ccccc12)NC(=O)[C@H](CCN)NC(=O)[C@H](Cc1ccc(O)cc1)NC(=O)[C@H](CO)NC(=O)[C@H](C)NC(=O)[C@H](CC(C)C)NC(=O)[C@H](CC(=O)O)NC(=O)[C@@H](NC(=O)[C@H](CC(C)C)NC(=O)[C@H](CCCCN)NC(=O)CNC(=O)[C@@H]1CCCN1C(=O)[C@H](C)NC(=O)[C@H](CCCNC(=N)N)NC(=O)[C@@H](N)CCCNC(=N)N)[C@@H](C)O)[C@@H](C)O)C(=O)N[C@@H](C)C(=O)O

Square brackets hold non-standard residues; d marks the D form. Ends that are not written are not given here. Orn = NCCC[C@H](N)C(=O)O; Dab = NCC[C@H](N)C(=O)O; Dap = NC[C@H](N)C(=O)O A value given as a limit tells only on which side of the number the result lay.

This assay concerns the target human Factor IXa (human, UniProt P00740 47-191; P00740 227-461). As to the kind of experiment: cell-based or functional assay.
Take B1: the “EC50 [µM], FXa generation assay” value is less than 0.5 µM. Turning to RRAPGKLTDLASYKWLFWTGIA-NH2 [RRAPGKLT-Asp-LASY-Lys-WLFWTGIA-CONH2], the “EC50 [µM], FXa generation assay” value is less than 0.5 µM. For B2 the value was more than 1 µM. The result for B3 reads more than 10 µM; that for B4, more than 1 µM. For B5 the value was more than 10 µM. Consider RRAPGKLTKLASYEWLFWTGIA-NH2 [RRAPGKLT-Lys-LASY-Glu-WLFWTGIA-CONH2], for which the “EC50 [µM], FXa generation assay” value is more than 1 µM. Regarding B6, the “EC50 [µM], FXa generation assay” value was more than 10 µM. B7: the “EC50 [µM], FXa generation assay” value was less than 0.5 µM.

Regarding RRAPGKLTDLASYKWLFWTGIA-OH [RRAPGKLT-Asp-LASY-Lys-WLFWTGIA-COOH], the “EC50 [µM], FXa generation assay” value is less than 0.5 µM.

For the molecule RRAPGKLTKLASYEWLFWTGIA-OH [RRAPGKLT-Lys-LASY-Glu-WLFWTGIA-COOH], the “EC50 [µM], FXa generation assay” value was less than 0.5 µM. The result for RRAPGKLTKLASYDWLFWTGIA-OH [RRAPGKLT-Lys-LASY-Asp-WLFWTGIA-COOH] reads more than 10 µM; that for B8, more than 1 µM; that for B9, more than 1 µM. Take RRAPGKLTKLASYDWLFWTGIA-NH2 [RRAPGKLT-Lys-LASY-Asp-WLFWTGIA-CONH2]: the “EC50 [µM], FXa generation assay” value is more than 1 µM. With B10, the “EC50 [µM], FXa generation assay” value was more than 10 µM.

Regarding RRAPGCLTALASYAWLCWTGIA-NH2 (cysteine pairing not given here) [RRAPGCLTALASYAWLCWTGIA-CONH2], the “EC50 [µM], FXa generation assay” value is more than 1 µM.

For the origin of these results see patent US20140303084A1 (Biogen, published 2014).
